Data taken from the nanobody polyreactivity screen of Harvey et al. (2022).

Assay: yeast display, Sf9 membrane polyspecificity reagent, FACS + sequencing; frameworks hold sequencing errors
How it was run: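 Genes from sorted yeast were amplified by colony PCR, read by MiSeq 2 × 250 sequencing and filtered on CDR length. These cells carried a synthetic nanobody library in Saccharomyces cerevisiae BJ5465 and were sorted by FACS into low and high (top ~1%) gates on anti-HA and streptavidin fluorescence. Polyreactivity is labelled according to the gate of origin.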

Sequence | polyreactivity (PSR sort gate)
QVQLVESGGGLVQAGGSLRLSCAASGLTFYRYAMGWYRQSPGKERELVAAISRGGTSTYYADSVKGRFTISRDNAKNTVYLQMSSLKPEDTAVYYCARLVKPYNYGRYGYWGQGTQVTVSS | high polyreactivity
QLQLVESGGGLVQAGGSLRLSCAPSGRIFPSYAMGWYRQAPGKERELVAPISWSGVSTYADSVKGRFTISRDNAKNTVYLQMNSVKPEDTAVYFCAAQYTLVIFPYGGYVIEYEYWGQGTQVTVSS | low polyreactivity
QVQLVESGGGLVQAGGSLRLSCASSGNTFIENAMGWYRQAPGKERELVAAIDTGGSTYYADSVKGRFTISRDNAKNTVYLQMNSLKPEDSAVYYCTAVGLYLYRYIFGYLGKIGPGYDYWGQGTQVSVSS | low polyreactivity
QVQLVESGGGLVQAGGSLRLSCAASGRTFVWYDMGWYRQAPGKERELVAAITKRGTSTYYADSVKGRFTISRDNGKNTVYLQMNRLKPEDTAVYYCAVEYIYWFHSRSSYIYDYWGQGTQVTVSS | low polyreactivity
QVQLVESGGGLVQAGGSLRLSCSASGRTFDGYAMVWYRQAPGKEREMVASITRGGGSTYYADSVKGRFTISRDNAKNTVYLQMNSLKPEDTAVYYCATSDRQVKYDYWGQGTQVTVSS | low polyreactivity
QVQLVESGGGLVQAGGSLRLSCAASGRTFSWYVMGLYRQAPGKERELVAAINSNSGSTYYADSVKGRFTISRDNAKNTVYLQMNSLKPEDTAVYYCAARAKRYNVRFDYWGQGTQVTVSS | high polyreactivity
QVQLVESCGGIVQAGGSLRLSCAASGRIFGENAMGWYRQEPGKEREFVAVISISDASTYYADSVKGRFTISRDNAKNTVFFQMNSLKPEDTAVYYCAAEGPDSYSMDYWGQGTQVTVSS | low polyreactivity
QVQLVESGGGLVQAGGSLRLSCASSGLTFALYAMGWYRQAPGKEREFVAAITGSGGSTYYADSVKGRFTISRDNAKHTVYLQMNSLKPEYTAVYYCNKLFYRWRIVDKYYYWGQGTQVTVSS | high polyreactivity
QVQIVESGAGIVQAGGSLRLSCAASGFIFDIYAMGWYRQAPGKERELVASITWDDGSTYYADSVKGRFTISRDNAKNTVYLQINSLKPEDTAVYYCAADFEAGGYSLDYWGQGTQVTVSS | low polyreactivity
QVQLVESGGGLVQAGGSLRLSCAASGRTFRYYTMGWYRQAPGKEREFVAAISSTGGTYYADSVKGRFTISRDNAKNTVYLQMNSLKPEDTAVYYCAAETEDWNEYNYWGQGTQVTVSS | low polyreactivity
QVQLQESGAGLVQAGGSLRLSCAASGSIIHLHIMCWYRQAPRKERESVAAISYGTSTYYADSVKGRFTICRDNAKNTVYLQMNSPKPDDTAVYYCAALFLVSKHHHYWGEGTQVTVSS | low polyreactivity
QVQLVESGGGLVQAGGSLRLSCAASGSTFKVYAIGWYRQAPGKERELVAGISSGGNTNYADSVKGRFTISRDNAKNTVYLQMNSLKPEDTAVYYCNTDWYLPRYVLLGYFSGTEDYWGQGTQVTVSS | low polyreactivity
QVQLVESGGGLVQAGGSLRLSCAASGRIFDLYAMGWYRQAPGKERELVATISSGGSTYYADSVKVRFTISRDNAKNTVYLQMNSLKPEDTAVYYCAADSWVQFDYWGQGKQVTVSS | low polyreactivity
QVQLVESWGGLVQAGGSLRLSSAASGFTFVTYGMGWYRQAPGKERELVARISSSSTNYADSVKGRFTISRDNAKNTVYLQMKSLKPEDTAVYYCAAVHYRWWYRSAYDYWGQGTQVTVSS | low polyreactivity
QVQLVESGGGLVQAGGSLRLSCAASGITFEWYDMGWYRQAPGKEKDLVAAISQSGASTYYADSVKGRFTISRDNAKNTVYLQMNSLKPEETAVYYCATRARYVGGYKYNYWGQGTQVTVSS | high polyreactivity
QVQLVESGGGLVQAGGSLRLSCSASGSTFFSYAMGWYRQAPGKERELVATITSGGSTFADSVKWRFTISRDNAKNTVYLQMNSLKPEDTAVYYCNTDVVDCLFYHCECRFNYLGQGTQVTVSS | low polyreactivity
QVQLVESGGGLVQAGGSLRLSCAASGRIFYYYAMGWYRQAPGKERELVAAINRSGGSTYYADSVKGRFTISRDNAKNTVYLQMNSLKPEDTAVYYCASYDYWGQGTQVTVSS | high polyreactivity
QVQLVESGGGLVQAGGSLRLSCAASGSIFWGYAMGWNRQAPRKEREMVATITYGGDSTYYADSVKGRFTISRDNAKNTVYLQMNSLKPEDTAVYYCNVGVEPYDYVYWGQGTQVTVSS | low polyreactivity
QVQLVDSGGGLVQAGGSLRLSCAASGLIFPYNAMGWYRQAPGKERELVAAIDSGVTTYYADSVKGRFTISRDNAKNTVYLQMNSLKPEDTAVYYCAAVGLPGPEGDSWGQGTQVTVSS | low polyreactivity
QVQLVESGGGLVQAGGSLRLSSDASGRILAGYAMGWYRQAPGKERELVAAITRGGTTYYADYVKGRFTISRDNAKNTVYLQINSMKPEDTAVVYTVSSAQYDFWGQGTQVTVSS | low polyreactivity
QVQLVESGGGLVQAGGSLRLSCAASGRTFPENAKGWYTQAPGKEREFVAVISSGGGSTTYADSVKGRFTISRDNAKNTVYLQMNSLKPEDTAVYYCATEYYFHGYWITYSWGQGTQVTVSS | low polyreactivity
QVQLVESGGGLVQAGGSLRLSCAASGFTFDVYAMGWYRQAPGKERELVAAIDSGGSTNYADSVKGRFTISRDNAKNTVYLQMNSLKPEDTAVYYCAAPFVGSVVIRRWDEYDYWGQGTQVTVSS | low polyreactivity

Sequence | polyreactivity (PSR sort gate)
QVQLVESGGGLVQAGGSLRLSCAASGRIFTYYAMGWYRQAPGKERELVAAINFNSGSTYYADSVKGRFTISRDTAKNTVYLQMNSLKPEDTAVYYCAAVPRRGLPKSYYYWGQGTQVTVSS | high polyreactivity
QVQLVESGGGLVQAGGSLRLSCAASGSIFYVYVMGWYRQAPGKERELVAAIDTGGGDTYYADSVKGRFTISRDNAKNTVYLQMNSLKPEDTAVYYCSTSGPQYYSRNFDYWGQGTQVTVSS | low polyreactivity
QVQLVESGGGVVQAGGSLRLSCAASGSTFYPNAMGWYRQAPGKERELVAAISRGTRTKYADSVKGRFTISRDNAKNTVYLQMNSLKPEDTAVYYCAADTGTGLDWGQGTQVTVSS | high polyreactivity
QVQLVESGGGLVQAGGSLRLSCAASGSTFFTYTMGWYRQAPGKERELVARITSSGGSTYYADSVKGRFTISRDNAKNTVYLQMNSLKPEDTAVYYCNARYYSHPTYDYWGQGTQVTVSS | high polyreactivity
QVQLVESGGGLVQAGGSLRLSCAASGSTFYTNAMGLYRQAPGKERELVAAISWSAGSTYYADSVKGRFTISRDNAKNTVYLQMNSLKPEDTAVYYCAAYYWYKWGYKYGYWGQGTQVTVSS | high polyreactivity
QVQLVESGGGLVQAGGSLRLSCAASGFIFAYYAMGRYRQAPGKERELVAAITIDGSTYYADSVKGRFTIHDNAKNTVYLQMNRLKPEDTAVYYCNAGRWVYWQNNFGDYGYWGQGTQVTVSS | low polyreactivity
QVQLVESGGGLVQAGGSLRLSCAASGSTFWFNAMGWYRQAPGKERELVAAISSTGSTNYADSVKGRFTISRDNSKNTVYLQMNSLKPEDTAVYYCATQEGPHKLDPRGYYWGQGTQVTVSS | low polyreactivity
QVQLVESGGGLVQAGGSLRLSSAASGRIFTYYAMGWYRQAPGKERELVATISRRGGSTYYADSVKGRFTISRDNAKNTVYLQMNSLKPEDTAVYYCNRTYYGYDYWGHGTQVTVSS | high polyreactivity
QVQLVESGGGLVQAGGSLRLSCAASGRIFSYYAMGWYRQAPWKERELVAAISSSGGSTYYADSVKGRFTISRDNAKNTVYLQMNSLKPEDTEVYYCAKLLYGFGRYGYWGQGTQVTVSS | high polyreactivity
QVQLVESVGGLVQAGGCLRITCAASGSTSDANAMGWYRTATGKERELVAAITTGGSTNYADSVKGRFTISRDNAKNTVFLQMNSLKPEDTAVFYCAVDLLRMTGDRGHDYWGQGTQVTVSS | low polyreactivity
QVQLVESGGGLVQAGGSLRLSCAASGITFYKNVMGWYRQAPGKERELVAAISSSGGSTYYADSVKGRFTISRDNAKNTVYLQMNSLKPEDTAVYYCAADDPLYTPYEFDYWGQGTQVTVSS | low polyreactivity
QVQLVESGGGLVQAGGSLRLSCAASGIIFSSSAMGWYRQAPGKEREVVAAITSCGNTNYADSVKGRFTISRDNAKNTVYLQMNSLNPEDTAVYYCNAETSFVWLAWHPYGFGDWGQGTQVTVSS | low polyreactivity
QVQLVESGGGLVQAGGSISLSCAASGYIFHVYAMGWYRQAPGKERELVAAITSSGGSTYYADSVKGRFTISRDNAKNTVYLQMNSLKPEDTAVYYCAAAPCSFRYRYVVFTFGYWGQGTQVTVSS | high polyreactivity
QVQLVESGGGLVQAGGSLRLSCAASGRTFIRYAMGWYRQAPGKESELVAAISSRGGRTHYADSVKGRFTISRDNAKNTVYLQMNSLKPEDTAVYYCAADLTYVTVPGASYDYWGQCTQVTVSS | low polyreactivity
QVQLVESGGGLVQAGGSLRLSCAASGSIFGGNTMGWYRQAPGKERELVAAISWSGGRTYYADSVKGRFTISRDNAKNTVYLQMNSLKPEDTAVYYCAATFRGVLGWYHYEYWGQGTQVTVSS | high polyreactivity
QVQLVESGGGLVQAGGSLRLSCAASGSIFYGYDMGWYRQAPGKERELVATISWSSGSSTYYADSVKGRFTISRDNAKNTVYLQMNSLKPEDTAVYYCAVDFAIGYRYLGRVDYWGQGTQVTVSS | low polyreactivity
QVQLVESGGGLVQAGGSLRLSCAASGRTFIRNAMGWYRQAPGKERELVASIRRSGGSTYYADSVKGRFTISRDNAKNTVYLQMNSLKPEDTAVYYSAAVHRFLLGYGYWGQGTQVTVSS | high polyreactivity
QVQLHESGGGLVQAGGSLRLSCAASGTISYAGPMGWYRQAPGKEREFVAGIGVGSNTNYADSVKGRYTIIRDNAKNTVYLQMTSLKPEDTAVYYCAVGGYAPLGRPYWGQGTQVTVSS | low polyreactivity
QVQLVESGGGLVQAGGSLRLSCAASGSTYRYVMGWYRQAPGKERELVAAITYTGGSTYYADSVKGRFTISRDNAKNTVYLQMNSLKPEDTAVYYCAASRYYTFDYWGQGTQVTVSS | high polyreactivity
QVQLVESGGGLVQAGGSLRLSCAASGSTFTPYAMGWSRKAPGKERELVAVIRWRGGRTYYADSVQGRFTISRDNAKNTVYLQMNSLKPEDTAVYYCAAGGSQGAGGYGYYGYDYWGQGTQETVSS | low polyreactivity
QVLLQESGGGLVQAGGSLRLCCAASGYISGDQYMGWYRQAPGKEREFVAGIGNGTNTNYADSVKGRFTTSRDNAKNTVYLQMNSLKPEDTAVYYCAADPSDGSTLAYWGQGTQVTVSS | high polyreactivity
